Test results: patent US20190270815A1 (WUXI BIOLOGICS IRELAND, published 2019)

What was measured:
[1] = molecular target: T1, human PD-1 expressed on cells (human, UniProt Q15116 25-288); experiment: FACS on CHO-S cells expressing human PD-1
T1 construct: whole, on cells; also called PD-1 expressing CHO cell; PD-1 transfected CHO-S cells
Procedure: 3.1 Binding affinity of PD-1 antibodies to cell surface PD-1 molecules tested by flow cytometry (FACS): Antibody binding affinity to cell surface PD-1 was performed by FACS analysis. CHO-S cells expressing human PD-1 were transferred in to 96-well U-bottom plates (BD) at a density of 5×10⁵ cells/ml. Tested antibodies were 1:2 serially diluted in wash buffer (1×PBS/1% BSA) and incubated with cells at 4° C. for 1 h. The secondary antibody goat anti-human IgG Fc FITC (3.0 moles FITC per mole IgG, (Jackson Immunoresearch Lab) was added and incubated at 4° C. in the dark for 1 h. The cells were then washed once and resuspended in 1×PBS/1% BSA, and analyzed by flow cytometery (BD). Fluorescence intensity will be converted to bound molecules/cell based on the quantitative beads Quantum™ MESF Kits, Bangs Laboratories, Inc.). KD was calculated using Graphpad Prism5.

[2] = molecular target: T2, hPD-1 ECD-His point mutant R 94 (to alanine) (human, UniProt Q15116 25-170); experiment: ELISA, antibody coated, His-tagged PD-1 mutant supernatant; fold change vs silent alanine substitutions
T2 construct: extracellular domain
Procedure: (§1) After interacting with the supernatant that contains quantified PD-1 mutant, HRP conjugated anti-His antibody (Rockland, Cat#200-303-382) was added as detection antibody. Absorbance was normalized according to the average of control mutants. After setting an additional cutoff to t4he binding fold change (<0.55), the final determined epitope residues were identified.

[3] = molecular target: T3, hPD-1 ECD-His point mutant F 52 (to alanine) (human, UniProt Q15116 25-170); experiment: as above
T3 construct: extracellular domain
Procedure: as §1

[4] = molecular target: T4, hPD-1 ECD-His point mutant P 130 (to alanine) (human, UniProt Q15116 25-170); experiment: as above
T4 construct: extracellular domain
Procedure: as §1

[5] = molecular target: T5, hPD-1 ECD-His point mutant D 117 (to alanine) (human, UniProt Q15116 25-170); experiment: as above
T5 construct: extracellular domain
Procedure: as §1

[6] = molecular target: T6, hPD-1 ECD-His point mutant P 39 (to alanine) (human, UniProt Q15116 25-170); experiment: as above
T6 construct: extracellular domain
Procedure: as §1

[7] = molecular target: T7, hPD-1 ECD-His point mutant I 134 (to alanine) (human, UniProt Q15116 25-170); experiment: as above
T7 construct: extracellular domain
Procedure: as §1

[8] = molecular target: T8, hPD-1 ECD-His point mutant K 135 (to alanine) (human, UniProt Q15116 25-170); experiment: as above
T8 construct: extracellular domain
Procedure: as §1

[9] = molecular target: T9, hPD-1 ECD-His point mutant I 126 (to alanine) (human, UniProt Q15116 25-170); experiment: as above
T9 construct: extracellular domain
Procedure: as §1

[10] = molecular target: T10, hPD-1 ECD-His point mutant P 83 (to alanine) (human, UniProt Q15116 25-170); experiment: as above
T10 construct: extracellular domain
Procedure: as §1

[11] = molecular target: T11, hPD-1 ECD-His point mutant S 137 (to alanine) (human, UniProt Q15116 25-170); experiment: as above
T11 construct: extracellular domain
Procedure: as §1

[12] = molecular target: T12, hPD-1 ECD-His point mutant A 129 (to glycine) (human, UniProt Q15116 25-170); experiment: as above
T12 construct: extracellular domain
Procedure: as §1

[13] = molecular target: T13, hPD-1 ECD-His point mutant D 85 (to alanine) (human, UniProt Q15116 25-170); experiment: as above
T13 construct: extracellular domain
Procedure: as §1

[14] = molecular target: T14, hPD-1 ECD-His point mutant F 106 (to alanine) (human, UniProt Q15116 25-170); experiment: as above
T14 construct: extracellular domain
Procedure: as §1

[15] = molecular target: T15, hPD-1 ECD-His point mutant G 47 (to alanine) (human, UniProt Q15116 25-170); experiment: as above
T15 construct: extracellular domain
Procedure: as §1

[16] = molecular target: T16, hPD-1 ECD-His point mutant L 128 (to alanine) (human, UniProt Q15116 25-170); experiment: as above
T16 construct: extracellular domain
Procedure: as §1

[17] = molecular target: T17, hPD-1 ECD-His point mutant W 67 (to alanine) (human, UniProt Q15116 25-170); experiment: as above
T17 construct: extracellular domain
Procedure: as §1

[18] = molecular target: T18, hPD-1 ECD-His point mutant A 132 (to glycine) (human, UniProt Q15116 25-170); experiment: as above
T18 construct: extracellular domain
Procedure: as §1

[19] = molecular target: T19, hPD-1 ECD-His point mutant A 50 (to glycine) (human, UniProt Q15116 25-170); experiment: as above
T19 construct: extracellular domain
Procedure: as §1

[20] = molecular target: T20, hPD-1 ECD-His point mutant K 131 (to alanine) (human, UniProt Q15116 25-170); experiment: as above
T20 construct: extracellular domain
Procedure: as §1

[21] = molecular target: T21, hPD-1 ECD-His point mutant V 144 (to alanine) (human, UniProt Q15116 25-170); experiment: as above
T21 construct: extracellular domain
Procedure: as §1

T8 sequence (Q15116 other isoform, or with tags, fused parts or gaps mutant): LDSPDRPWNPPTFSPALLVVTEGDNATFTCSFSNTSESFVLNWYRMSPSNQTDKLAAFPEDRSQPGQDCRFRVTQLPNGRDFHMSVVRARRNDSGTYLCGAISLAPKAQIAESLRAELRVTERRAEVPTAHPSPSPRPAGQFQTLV
T5 sequence (Q15116 other isoform, or with tags, fused parts or gaps mutant): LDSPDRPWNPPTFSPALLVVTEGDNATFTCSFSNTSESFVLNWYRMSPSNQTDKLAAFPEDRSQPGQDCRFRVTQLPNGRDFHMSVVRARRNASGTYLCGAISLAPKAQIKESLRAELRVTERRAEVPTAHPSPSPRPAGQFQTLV
T19 sequence (Q15116 other isoform, or with tags, fused parts or gaps mutant): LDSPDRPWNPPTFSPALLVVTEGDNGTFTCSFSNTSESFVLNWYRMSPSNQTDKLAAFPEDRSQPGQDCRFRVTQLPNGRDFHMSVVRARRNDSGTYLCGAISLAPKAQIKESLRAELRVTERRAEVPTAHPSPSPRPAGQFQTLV
T6 sequence (Q15116 other isoform, or with tags, fused parts or gaps mutant): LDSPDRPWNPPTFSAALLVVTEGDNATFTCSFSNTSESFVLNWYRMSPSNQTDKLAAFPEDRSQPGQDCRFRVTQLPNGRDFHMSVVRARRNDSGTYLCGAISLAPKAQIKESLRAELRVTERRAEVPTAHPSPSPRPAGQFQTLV
T11 sequence (Q15116 other isoform, or with tags, fused parts or gaps mutant): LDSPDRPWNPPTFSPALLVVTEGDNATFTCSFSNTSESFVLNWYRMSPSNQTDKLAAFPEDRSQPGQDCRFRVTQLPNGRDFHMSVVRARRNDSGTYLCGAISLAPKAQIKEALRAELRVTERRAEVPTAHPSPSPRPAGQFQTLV
T2 sequence (Q15116 other isoform, or with tags, fused parts or gaps mutant): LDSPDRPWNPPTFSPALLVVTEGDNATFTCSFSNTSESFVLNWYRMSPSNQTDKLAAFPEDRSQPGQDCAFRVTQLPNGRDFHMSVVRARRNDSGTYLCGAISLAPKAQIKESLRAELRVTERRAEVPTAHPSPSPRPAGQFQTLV
T13 sequence (Q15116 other isoform, or with tags, fused parts or gaps mutant): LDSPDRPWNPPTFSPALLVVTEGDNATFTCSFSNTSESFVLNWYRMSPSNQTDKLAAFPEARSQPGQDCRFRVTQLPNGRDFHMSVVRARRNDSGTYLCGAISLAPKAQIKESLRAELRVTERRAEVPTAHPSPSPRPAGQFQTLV
T12 sequence (Q15116 other isoform, or with tags, fused parts or gaps mutant): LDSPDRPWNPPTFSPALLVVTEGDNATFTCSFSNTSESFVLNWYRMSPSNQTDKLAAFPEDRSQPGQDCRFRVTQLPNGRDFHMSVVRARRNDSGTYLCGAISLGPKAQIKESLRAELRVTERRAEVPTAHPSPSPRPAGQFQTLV
T21 sequence (Q15116 other isoform, or with tags, fused parts or gaps mutant): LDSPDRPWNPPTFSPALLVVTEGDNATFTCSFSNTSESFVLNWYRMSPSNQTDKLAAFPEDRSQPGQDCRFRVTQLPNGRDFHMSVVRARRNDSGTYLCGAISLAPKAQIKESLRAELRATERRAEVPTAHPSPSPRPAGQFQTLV
T20 sequence (Q15116 other isoform, or with tags, fused parts or gaps mutant): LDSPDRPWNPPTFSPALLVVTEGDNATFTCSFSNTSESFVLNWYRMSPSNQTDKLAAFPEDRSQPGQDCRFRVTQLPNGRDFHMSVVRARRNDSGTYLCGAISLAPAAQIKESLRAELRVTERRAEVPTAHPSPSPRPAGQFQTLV
T1 sequence (Q15116 25-288): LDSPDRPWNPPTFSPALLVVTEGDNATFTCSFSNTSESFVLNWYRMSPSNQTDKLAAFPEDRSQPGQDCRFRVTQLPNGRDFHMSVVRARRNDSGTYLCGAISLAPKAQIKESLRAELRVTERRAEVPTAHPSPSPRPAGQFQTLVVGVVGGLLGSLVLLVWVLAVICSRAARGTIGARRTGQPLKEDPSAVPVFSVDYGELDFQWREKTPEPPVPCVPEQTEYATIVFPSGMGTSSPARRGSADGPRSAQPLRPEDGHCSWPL
T9 sequence (Q15116 other isoform, or with tags, fused parts or gaps mutant): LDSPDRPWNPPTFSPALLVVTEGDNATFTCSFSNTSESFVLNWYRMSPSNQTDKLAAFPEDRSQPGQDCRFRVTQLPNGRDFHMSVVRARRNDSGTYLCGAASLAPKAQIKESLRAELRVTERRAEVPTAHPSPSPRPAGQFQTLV
T14 sequence (Q15116 other isoform, or with tags, fused parts or gaps mutant): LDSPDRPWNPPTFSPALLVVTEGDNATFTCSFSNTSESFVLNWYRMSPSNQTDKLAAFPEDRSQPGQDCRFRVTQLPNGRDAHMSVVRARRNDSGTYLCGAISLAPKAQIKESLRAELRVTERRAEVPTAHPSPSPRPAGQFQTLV
T17 sequence (Q15116 other isoform, or with tags, fused parts or gaps mutant): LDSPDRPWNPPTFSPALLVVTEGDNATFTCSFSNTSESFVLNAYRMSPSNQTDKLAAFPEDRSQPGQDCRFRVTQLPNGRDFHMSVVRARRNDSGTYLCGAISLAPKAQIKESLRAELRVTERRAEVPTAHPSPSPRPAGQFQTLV
T7 sequence (Q15116 other isoform, or with tags, fused parts or gaps mutant): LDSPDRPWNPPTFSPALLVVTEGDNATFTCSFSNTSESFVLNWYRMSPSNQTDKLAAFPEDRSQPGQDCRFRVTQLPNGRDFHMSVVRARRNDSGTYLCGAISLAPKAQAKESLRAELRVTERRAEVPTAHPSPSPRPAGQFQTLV
T18 sequence (Q15116 other isoform, or with tags, fused parts or gaps mutant): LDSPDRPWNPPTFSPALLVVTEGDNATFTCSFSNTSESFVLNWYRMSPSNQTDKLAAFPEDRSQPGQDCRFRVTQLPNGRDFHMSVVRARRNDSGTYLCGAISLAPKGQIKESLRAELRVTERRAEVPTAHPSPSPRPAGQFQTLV
T10 sequence (Q15116 other isoform, or with tags, fused parts or gaps mutant): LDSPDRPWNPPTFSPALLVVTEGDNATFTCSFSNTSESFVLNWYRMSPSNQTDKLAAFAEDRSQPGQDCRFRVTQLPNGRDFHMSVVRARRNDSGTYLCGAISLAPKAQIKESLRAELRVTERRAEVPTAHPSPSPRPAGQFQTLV
T16 sequence (Q15116 other isoform, or with tags, fused parts or gaps mutant): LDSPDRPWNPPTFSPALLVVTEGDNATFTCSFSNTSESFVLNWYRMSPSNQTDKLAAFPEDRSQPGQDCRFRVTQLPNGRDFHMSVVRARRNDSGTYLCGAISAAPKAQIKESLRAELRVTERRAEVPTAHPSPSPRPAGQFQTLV
T4 sequence (Q15116 other isoform, or with tags, fused parts or gaps mutant): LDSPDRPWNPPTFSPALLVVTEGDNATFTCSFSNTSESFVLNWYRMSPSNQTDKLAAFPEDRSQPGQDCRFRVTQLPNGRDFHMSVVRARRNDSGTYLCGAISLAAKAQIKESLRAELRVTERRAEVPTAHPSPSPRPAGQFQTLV
T15 sequence (Q15116 other isoform, or with tags, fused parts or gaps mutant): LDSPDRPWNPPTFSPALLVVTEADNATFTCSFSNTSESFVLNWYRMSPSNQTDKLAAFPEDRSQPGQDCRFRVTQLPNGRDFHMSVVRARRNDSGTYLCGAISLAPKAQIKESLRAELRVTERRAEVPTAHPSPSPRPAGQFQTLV
T3 sequence (Q15116 other isoform, or with tags, fused parts or gaps mutant): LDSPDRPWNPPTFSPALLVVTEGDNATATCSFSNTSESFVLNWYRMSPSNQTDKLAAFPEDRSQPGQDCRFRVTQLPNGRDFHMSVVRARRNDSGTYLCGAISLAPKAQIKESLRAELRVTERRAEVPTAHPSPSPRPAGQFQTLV

B1: 1.103.11 hAb (antibody, V domains shown)
VH: QLQLQESGPGLVKPSETLTLTCTVSADSISSTTYYWVWIRQPPGKGLEWIGSISYSGSTYYNPSLKSRVTVSVDTSKNQFSLKLNSVAATDTALYYCARHLGYNGRYLPFDYWGQGTLVTVSS
VL: QSALTQPASVSGSPGQSITISCTGTSSDVGFYNYVSWYQQHPGKAPELMIYDVSNRPSGVSDRFSGSKSGNTASLTISGLQAEDEADYYCSSYTNISTWVFGGGTKLTVL
notes: fully human monoclonal antibody with a human constant region of IgG4 isotype
EC50 [1]: ~2 nM
fold change [2]: 0.7
fold change [3]: 0.59
fold change [4]: 0.41
fold change [5]: 0.73
fold change [6]: 0.55
fold change [7]: 0.69
fold change [8]: 0.62
fold change [9]: 0.64
fold change [10]: 0.3
fold change [11]: 0.62
fold change [12]: 0.22
fold change [13]: 0.24
fold change [14]: 0.41
fold change [15]: 0.77
fold change [16]: 0.32
fold change [17]: 0.76
fold change [18]: 0.53
fold change [19]: 0.73
fold change [20]: 0.43
fold change [21]: 0.22
